The text below walks through data of patent US20070092489A1.

Test [1] addresses adenovirus fiber knob as shown on Av3GFP adenoviral vector particles. Kind of test: cell-based or functional assay.
Test [2] addresses adenovirus fiber knob as shown on Cy3-labeled adenoviral vector particles. Put plainly: depletion of Cy3-labeled adenovirus from suspension by fluorimetry; D1 tethered on Co/Cr alloy.
The target is the same in test [3]. Kind of test: depletion of Cy3-labeled adenovirus from suspension by fluorimetry; D1 tethered on stainless steel.
For test [4] the target is unchanged. Put plainly: depletion of Cy3-labeled adenovirus; D1-tethered against anti-knob Ab-tethered metal surfaces.
For test [5] the target is unchanged. Put plainly: depletion of Cy3-labeled adenovirus from suspension by fluorimetry; D1 tethered on nitinol.

Several values for one entry are separate records, joined by “and”; a condition that tells them apart may be missing. Equal entries are not always repeated.

In turn, “D1-FGF2 fusion protein (CAR D1 ligated to basic fibroblast growth factor FGF2 by intein-mediated protein ligation) (from UniProt P78310 15-140; P09038 134-288)” returned a concentration required to achieve maximal GFP expression (Av3GFP transduction of SKOV-3 cells) in test [1] of 14 nM.

As to “thiol-containing form of the D1 domain of the coxsackie-adenovirus receptor (D1-Cys), covalently immobilized on a metal surface (from UniProt P78310 15-140)”, the amount of Ad bound per cm^2 of the surface in test [2] was 1.51e+10 Ad per cm^2; in test [3] it was 1.08e+10 Ad per cm^2; in test [5] it was 1.16e+10 Ad per cm^2. The fold greater adenovirus binding than the specific antibody (anti-knob Ab) in test [4] is 2 fold and 4 fold.
